Results as given in paper PMC8177486.

target: KEAP1_(312–624), human KEAP1 Kelch repeat domain (human) (UniProt Q14145); experiment: fluorescence polarisation

Binder | Kd [nM] | KD ratio to wild type (KD^T80S/KD^WT)
Nrf2_(34–100) E82A (domain or fragment) REVFDFSQRRKEYELEKQKKLEKERQEQLQKEQEKAFFAQLQLDEETGAFLPIQPAQHIQSETSGSA | 22000 | 
Nrf2_(34–100) T80A (domain or fragment) REVFDFSQRRKEYELEKQKKLEKERQEQLQKEQEKAFFAQLQLDEEAGEFLPIQPAQHIQSETSGSA | 26000 | 
Nrf2_(34–100) D77A (domain or fragment) REVFDFSQRRKEYELEKQKKLEKERQEQLQKEQEKAFFAQLQLAEETGEFLPIQPAQHIQSETSGSA | 4400 | 
Nrf2_(34–100) E79A (domain or fragment) REVFDFSQRRKEYELEKQKKLEKERQEQLQKEQEKAFFAQLQLDEATGEFLPIQPAQHIQSETSGSA | 1700 | 
Nrf2_(34–100) T80S (domain or fragment) REVFDFSQRRKEYELEKQKKLEKERQEQLQKEQEKAFFAQLQLDEESGEFLPIQPAQHIQSETSGSA |  | 30

Other lines, results leading:

Kd [nM] | KD ratio to wild type (KD^T80S/KD^WT) | Binder
10 |  | Nrf2_(1–100) (domain or fragment) MMDLELPPPGLPSQQDMDLIDILWRQDIDLGVSREVFDFSQRRKEYELEKQKKLEKERQEQLQKEQEKAFFAQLQLDEETGEFLPIQPAQHIQSETSGSA
18 |  | Nrf2_(34–100) F83A (domain or fragment) REVFDFSQRRKEYELEKQKKLEKERQEQLQKEQEKAFFAQLQLDEETGEALPIQPAQHIQSETSGSA
10 |  | Nrf2_(34–100) wild type (domain or fragment) REVFDFSQRRKEYELEKQKKLEKERQEQLQKEQEKAFFAQLQLDEETGEFLPIQPAQHIQSETSGSA
25 |  | Nrf2_(34–100) E78A (domain or fragment) REVFDFSQRRKEYELEKQKKLEKERQEQLQKEQEKAFFAQLQLDAETGEFLPIQPAQHIQSETSGSA
